Laboratory results taken from patent publication US9034341B2, “Control of RAGE fusion protein glycosylation and RAGE fusion protein compositions” (TransTech Pharma, LLC, priority 2009, dated 2015).

T1: S100b (Bos taurus, UniProt P02638)
T1 construct: purchased Calbiochem 559290
T1 sequence (P02638 1-92): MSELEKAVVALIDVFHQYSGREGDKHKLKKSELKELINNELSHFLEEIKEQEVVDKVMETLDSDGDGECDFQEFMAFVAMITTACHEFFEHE


How the values were obtained:
S100b = target: T1, S100b; test: S100b binding ELISA; conditions: for Relative binding compared to control: binding to S100b relative to S1 control (untreated sRAGE-Ig)
Procedure: Peak fraction collection for S100b binding assay: sRAGE-Ig fusion protein samples were concentrated to 4.0 mg/mL using a 10K Amicon Ultra filtration column (Millipore, Bedford, Mass.) and then separated under the reversed-phase conditions for glycan site occupancy as described above. Three fractions representing the site occupancy variants of sRAGE-Ig were collected as triply glycosylated (fraction one, F1), doubly glycosylated (fraction two, F2), and aglycosylated (fraction three, F3). The collected samples were concentrated and exchanged into a stabilizing buffer. Protein concentration of the fraction samples was determined by 280 nm absorbance with a DU 650 spectrophotometer (Beckman Coulter, Fullerton, Calif.) before subjecting the protein to the S100b ELISA binding assay.
(§1) S100b binding ELISA: An ELISA assay plate was coated with 100 μL/well of 20 μg/mL S100b protein (Cat. No. 559290, Calbiochem, Gibbstown, N.J.) in coating buffer (Tris buffered saline [TBS], pH8.0, with 5 mM CaCl2) overnight at 4° C. The plate was then washed three times with blocking buffer (TBS pH8.0, with 5 mM CaCl2, 0.05% Tween20, and 1% bovine serum albumin [BSA]), and blocked with the blocking buffer for 1-1.5 hr. sRAGE-Ig fusion samples were prepared in a separate dilution plate, the highest concentration was 10 μg/mL in blocking buffer, with 1:4 serial dilution in blocking buffer down to 2.4 ng/mL. After blocking, the assay plate was washed with the blocking buffer and 100 μL of the samples were transferred from the dilution plate to the assay plate. The assay plate was incubated at room temperature for 2.5 hr. The assay plate was then washed three times with the blocking buffer, with 1 min soaking time between the washes. The horseradish peroxidase conjugated goat anti-human IgG (Cat. No. A2290, Sigma, St. Louis, Mo.) was added to the plate with 100 μL/well at 1:2500 dilution in the blocking buffer. The plate was incubated for 1 hr at room temperature. The assay plate was then washed three times with the blocking buffer again, and 100 μL 3,3′,5,5′-tetramethylbenzidine (TMB; Cat. No. 34022, Pierce, Rockford, Ill.) was added to each well and the plate was incubated for 8 minutes at room temperature. 100 μL of 1M H2SO4 was then added to each well, the plate was shaken and read at 450 nm on a microplate reader.

[1] = test system: human Aβ peptides (Aβ1-40, Aβ1-28); test: Aβ peptide binding ELISA; conditions: for Relative binding compared to control: binding to Abeta relative to S1 control
Chain of human Aβ peptides (Aβ1-40, Aβ1-28) (P05067 672-699 limits assumed): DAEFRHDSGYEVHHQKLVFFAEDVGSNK
Procedure: as §1
Assay for Aβ peptide binding activities: Briefly, two human Aβ peptides were tested: Aβ1-40 (Catalogue# A-1153-2, Rpeptide), and Aβ1-28 (Catalogue#24232, AnaSpec). The plates were coated by 20 μg/mL peptide in 1% NH4OH overnight at 4° C. The plate was then washed with blocking buffer (TBS pH8.0, 0.05% Tween20, and 1% BSA) and blocked for 1 hr at room temperature. All the other steps were performed essentially as described previously herein for S100b binding assay, supra.

[2] = versus unfractionated untreated S1

Row | Molecule | Relative binding compared to control (S100b) | Relative binding compared to control [1] | fold increase in binding to S100b compared to fully occupied 3-glycan version (S100b; versus S1F1) | fold increase in binding to S100b compared to S1 control (S100b; [2]) | fold increase in binding to Abeta compared to fully occupied 3-glycan version ([1]; versus S2F1) | fold increase in binding to Abeta compared to S1 control [1, 2]
1 | S1F2: sRAGE-Ig fraction from untreated cells, 2-glycan occupancy (protein) QNITARIGEPLVLKCKGAPKKPPQRLEWKLNTGRTEAWKVLSPQGGGPWDSVARVLPNGSLFLPAVGIQDEGIFRCQAMNRNGKETKSNYRVRVYQIPGKPEIVDSASELTAGVPNKVGTCVSEGSYPAGTLSWHLDGKPLVPNEKGVSVKEQTRRHPETGLFTLQSELMVTPAPGGDPRPTFSCSFSPGLPRHRALRTAPIQPRVWEPVPLEEVQLVVEPEGGAVAPPSVFLFPPKPKDTLMISRTPEVTCVVVDVSHEDPEVKFNWYVDGVEVHNAKTKPREEQYNSTYRVVSVLTVLHQDWLNGKEYKCKVSNKALPAPIEKTISKAKGQPREPQVYTLPPSRDELTKNQVSLTCLVKGFYPSDIAVEWESNGQPENNYKTTPPVLDSDGPFFLYSKLTVDKSRWQQGNVFSCSVMHEALHNHYTQKSLSLSPGK | 173% | 170% | – | – | – | –
2 | S2F1: sRAGE-Ig fraction from TMYCN treated cells, 3-glycan occupancy (protein) QNITARIGEPLVLKCKGAPKKPPQRLEWKLNTGRTEAWKVLSPQGGGPWDSVARVLPNGSLFLPAVGIQDEGIFRCQAMNRNGKETKSNYRVRVYQIPGKPEIVDSASELTAGVPNKVGTCVSEGSYPAGTLSWHLDGKPLVPNEKGVSVKEQTRRHPETGLFTLQSELMVTPAPGGDPRPTFSCSFSPGLPRHRALRTAPIQPRVWEPVPLEEVQLVVEPEGGAVAPPSVFLFPPKPKDTLMISRTPEVTCVVVDVSHEDPEVKFNWYVDGVEVHNAKTKPREEQYNSTYRVVSVLTVLHQDWLNGKEYKCKVSNKALPAPIEKTISKAKGQPREPQVYTLPPSRDELTKNQVSLTCLVKGFYPSDIAVEWESNGQPENNYKTTPPVLDSDGPFFLYSKLTVDKSRWQQGNVFSCSVMHEALHNHYTQKSLSLSPGK | 20% | 49% | – | – | – | –
3 | S2F3: sRAGE-Ig fraction from TMYCN treated cells, 0-glycan occupancy (aglycosylated variant) (protein, non-natural residues) QNITARIGEPLVLKCKGAPKKPPQRLEWKLNTGRTEAWKVLSPQGGGPWDSVARVLPNGSLFLPAVGIQDEGIFRCQAMNRNGKETKSNYRVRVYQIPGKPEIVDSASELTAGVPNKVGTCVSEGSYPAGTLSWHLDGKPLVPNEKGVSVKEQTRRHPETGLFTLQSELMVTPAPGGDPRPTFSCSFSPGLPRHRALRTAPIQPRVWEPVPLEEVQLVVEPEGGAVAPPSVFLFPPKPKDTLMISRTPEVTCVVVDVSHEDPEVKFNWYVDGVEVHNAKTKPREEQYNSTYRVVSVLTVLHQDWLNGKEYKCKVSNKALPAPIEKTISKAKGQPREPQVYTLPPSRDELTKNQVSLTCLVKGFYPSDIAVEWESNGQPENNYKTTPPVLDSDGPFFLYSKLTVDKSRWQQGNVFSCSVMHEALHNHYTQKSLSLSPGK | – | – | ten-fold | five-fold | six-fold | three-fold
4 | S2F2: sRAGE-Ig fraction from TMYCN treated cells, 2-glycan occupancy (protein) QNITARIGEPLVLKCKGAPKKPPQRLEWKLNTGRTEAWKVLSPQGGGPWDSVARVLPNGSLFLPAVGIQDEGIFRCQAMNRNGKETKSNYRVRVYQIPGKPEIVDSASELTAGVPNKVGTCVSEGSYPAGTLSWHLDGKPLVPNEKGVSVKEQTRRHPETGLFTLQSELMVTPAPGGDPRPTFSCSFSPGLPRHRALRTAPIQPRVWEPVPLEEVQLVVEPEGGAVAPPSVFLFPPKPKDTLMISRTPEVTCVVVDVSHEDPEVKFNWYVDGVEVHNAKTKPREEQYNSTYRVVSVLTVLHQDWLNGKEYKCKVSNKALPAPIEKTISKAKGQPREPQVYTLPPSRDELTKNQVSLTCLVKGFYPSDIAVEWESNGQPENNYKTTPPVLDSDGPFFLYSKLTVDKSRWQQGNVFSCSVMHEALHNHYTQKSLSLSPGK | 180% | 238% | – | – | – | –
5 | S1F1: sRAGE-Ig fraction from untreated cells, 3-glycan occupancy (protein) QNITARIGEPLVLKCKGAPKKPPQRLEWKLNTGRTEAWKVLSPQGGGPWDSVARVLPNGSLFLPAVGIQDEGIFRCQAMNRNGKETKSNYRVRVYQIPGKPEIVDSASELTAGVPNKVGTCVSEGSYPAGTLSWHLDGKPLVPNEKGVSVKEQTRRHPETGLFTLQSELMVTPAPGGDPRPTFSCSFSPGLPRHRALRTAPIQPRVWEPVPLEEVQLVVEPEGGAVAPPSVFLFPPKPKDTLMISRTPEVTCVVVDVSHEDPEVKFNWYVDGVEVHNAKTKPREEQYNSTYRVVSVLTVLHQDWLNGKEYKCKVSNKALPAPIEKTISKAKGQPREPQVYTLPPSRDELTKNQVSLTCLVKGFYPSDIAVEWESNGQPENNYKTTPPVLDSDGPFFLYSKLTVDKSRWQQGNVFSCSVMHEALHNHYTQKSLSLSPGK | 46% | 102% | – | – | – | –
